Reference: patent publication US20240261333A1, “NOVEL TARGETS FOR ENHANCING ANTI-TUMOR IMMUNITY” (THE BROAD INSTITUTE, INC., priority 2021, published 2024)

B1: PJA2 (protein)
chain: SQYTEKEPAAMDQESGKAVWPKPAGGYQTITGRRYGRRHAYVSFKPCMTRHERSLGRAGDDYEVLELDDVPKENSSGSSPLDQVDSSLPSEPIFEKSETEIPTCGSALNQTTESSQSFVAVHHSEEGRDTLGSSTNLHNHSEGEYIPGACSASSVQNGIALVHTDSYDPDGKHGEDNDHLQLSAEVVEGSRYQESLGNTVFELENREAEAYTGLSPPVPSFNCEVRDEFEELDSVPLVKSSAGDTEFVHQNSQEIQRSSQDEMVSTKQQNNTSQERQTEHSPEDAACGPGHICSEQNTNDREKNHGSSPEQVVRPKVRKLISSSQVDQETGFNRHEAKQRSVQRWREALEVEESGSDDLLIKCEEYDGEHDCMFLDPPYSRVITQRETENNQMTSESGATAGRQEVDNTFWNGCGDYYQLYDKDEDSSECSDGEWSASLPHRFSGTEKDQSSSDESWETLPGKDENEPELQSDSSGPEEENQELSLQEGEQTSLEEGEIPWLQYNEVNESSSDEGNEPANEFAQPAFMLDGNNNLEDDSSVSEDLDVDWSLFDGFADGLGVAEAISYVDPQFLTYMALEERLAQAMETALAHLESLAVDVEVANPPASKESIDGLPETLVLEDHTAIGQEQCCPICCSEYIKDDIATELPCHHFFHKPCVSIWLQKSGTCPVCRRHFPPAVIEASAAPSSEPDPDAPPSNDSIAEAP
B2: RRP12 (protein)
chain: MGRSGKLPSGVSAKLKRWKKGHSSDSNPAICRHRQAARSRFFSRPSGRSDLTVDAVKLHNELQSGSLRLGKSEAPETPMEEEAELVLTEKSSGTFLSGLSDCTNVTFSKVQRFWESNSAAHKEICAVLAAVTEVIRSQGGKETETEYFAALVLSCLATLLRKQDLEAWGYPVTLQVYHGLLSFTVHPKPKIRKAAQHGVCSVLKGSEFMFEKAPAHHPAAISTAKFCIQEIEKSGGSKEATTTLHMLTLLKDLLPCFPEGLVKSCSETLLRVMTLSHVLVTACAMQAFHSLFHARPGLSTLSAELNAQIITALYDYVPSENDLQPLLAWLKVMEKAHINLVRLQWDLGLGHLPRFFGTAVTCLLSPHSQVLTAATQSLKEILKECVAPHMADIGSVTSSASGPAQSVAKMFRAVEEGLTYKFHAAWSSVLQLLCVFFEACGRQAHPVMRKCLQSLCDLRLSPHFPHTAALDQAVGAAVTSMGPEVVLQAVPLEIDGSEETLDFPRSWLLPVIRDHVQETRLGFFTTYFLPLANTLKSKAMDLAQAGSTVESKIYDTLQWQMWTLLPGFCTRPTDVAISFKGLARTLGMAISERPDLRVTVCQALRTLITKGCQAEADRAEVSRFAKNFLPILFNLYGQPVAAGDTPAPRRAVLETIRTYLTITDTQLVNSLLEKASEKVLDPASSDFTRLSVLDLVVALAPCADEAAISKLYSTIRPYLESKAHGVQKKAYRVLEEVCASPQGPGALFVQSHLEDLKKTLLDSLRSTSSPAKRPRLKCLLHIVRKLSAEHKEFITALIPEVILCTKEVSVGARKNAFALLVEMGHAFLRFGSNQEEALQCYLVLIYPGLVGAVTMVSCSILALTHLLFEFKGLMGTSTVEQLLENVCLLLASRTRDVVKSALGFIKVAVTVMDVAHLAKHVQLVMEAIGKLSDDMRRHFRMKLRNLFTKFIRKFGFELVKRLLPEEYHRVLVNIRKAEARAKRHRALSQAAVEEEEEEEEEEEPAQGKGDSIEEILADSEDEEDNEEEERSRGKEQRKLARQRSRAWLKEGGGDEPLNFLDPKVAQRVLATQPGPGRGRKKDHGFKVSADGRLIIREEADGNKMEEEEGAKGEDEEMADPMEDVIIRNKKHQKLKHQKEAEEEELEIPPQYQAGGSGIHRPVAKKAMPGAEYKAKKAKGDVKKKGRPDPYAYIPLNRSKLNRRKKMKLQGQFKGLVKAARRGSQVGHKNRRKDRRP
B3: STAU2 (protein)
chain: MANPKEKTAMCLVNELARFNRVQPQYKLLNERGPAHSKMFSVQLSLGEQTWESEGSSIKKAQQAVANKALTESTLPKPVQKPPKSNVNNNPGSITPTVELNGLAMKRGEPAIYRPLDPKPFPNYRANYNFRGMYNQRYHCPVPKIFYVQLTVGNNEFFGEGKTRQAARHNAAMKALQALQNEPIPERSPQNGESGKDVDDDKDANKSEISLVFEIALKRNMPVSFEVIKESGPPHMKSFVTRVSVGEFSAEGEGNSKKLSKKRAATTVLQELKKLPPLPVVEKPKLFFKKRPKTIVKAGPEYGQGMNPISRLAQIQQAKKEKEPDYVLLSERGMPRRREFVMQVKVGNEVATGTGPNKKIAKKNAAEAMLLQLGYKASTNLQDQLEKTGENKGWSGPKPGFPEPTNNTPKGILHLSPDVYQEMEASRHKVISGTTLGYLSPKDMNQPSSSFFSISPTSNSSATIARELLMNGTSSTAEAIGLKGSSPTPPCSPVQPSKQLEYLARIQGFQAALSALKQFSEQGLDPIDGAMNIEKGSLEKQAKHLREKADNNQAPPGSIAQDCKKSNSAV
B4: STAU1 (protein)
chain: MKLGKKPMYKPVDPYSRMQSTYNYNMRGGAYPPRYFYPFPVPPLLYQVELSVGGQQFNGKGKTRQAAKHDAAAKALRILQNEPLPERLEVNGRESEEENLNKSEISQVFEIALKRNLPVNFESFPLKQVARESGPPHMKNFVTKVSVGEFVGEGEGKSKKISKKNAAIAVLEELKKLPPLPAVERVKPRIKKKTKPIVKPQTSPEYGQGINPISRLAQIQQAKKEKEPEYTLLTERGLPRRREFVMQVKVGNHTAEGTGTNKKVAKRNAAENMLEILGFKVPQAQPTKPALKSEEKTPIKKPGDGRKVTFFEPGSGDENGTSNKEDEFRMPYLSHQQLPAGILPMVPEVAQAVGVSQGHHTKDFTRAAPNPAKATVTAMIARELLYGGTSPTAETILKNNISSGHVPHGPLTRPSEQLDYLSRVQGFQVEYKDFPKNNKNEFVSLINCSSQPPLISHGIGKDVESCHDMAALNILKLLSELDQQSTEMPRTGNGPMSVCGRC
B5: GANAB (protein)
chain: ITLAVDRSNFKTCEESSFCKRQRSIRPGLSPYRALLDSLQLGPDSLTVHLIHEVTKVLLVLELQGLQKNMTRFRIDELEPRRPRYRVPDVLVADPPIARLSVSGRDENSVELTMAEGPYKIILTARPFRLDLLEDRSLLLSVNARGLLEFEHQRAPRVSQGSKDPAEGDGAQPEETPRDGDKPEETQGKAEKDEPGAWEETFKTHSDSKPYGPMSVGLDFSLPGMEHVYGIPEHADNLRLKVTEGGEPYRLYNLDVFQYELYNPMALYGSVPVLLAHNPHRDLGIFWLNAAETWVDISSNTAGKTLFGKMMDYLQGSGETPQTDVRWMSETGIIDVFLLLGPSISDVFRQYASLTGTQALPPLFSLGYHQSRWNYRDEADVLEVDQGFDDHNLPCDVIWLDIEHADGKRYFTWDPSRFPQPRTMLERLASKRRKLVAIVDPHIKVDSGYRVHEELRNLGLYVKTRDGSDYEGWCWPGSAGYPDFTNPTMRAWWANMFSYDNYEGSAPNLFVWNDMNEPSVFNGPEVTMLKDAQHYGGWEHRDVHNIYGLYVHMATADGLRQRSGGMERPFVLARAFFAGSQRFGAVWTGDNTAEWDHLKISIPMCLSLGLVGLSFCGADVGGFFKNPEPELLVRWYQMGAYQPFFRAHAHLDTGRREPWLLPSQHNDIIRDALGQRYSLLPFWYTLLYQAHREGIPVMRPLWVQYPQDVTTFNIDDQYLLGDALLVHPVSDSGAHGVQVYLPGQGEVWYDIQSYQKHHGPQTLYLPVTLSSIPVFQRGGTIVPRWMRVRRSSECMKDDPITLFVALSPQGTAQGELFLDDGHTFNYQTRQEFLLRRFSFSGNTLVSSSADPEGHFETPIWIERVVIIGAGKPAAVVLQTKGSPESRLSFQHDPETSVLVLRKPGINVASDWSIHLR
B6: CTHRC1 (protein)
chain: MWPPGRSITVKLREKTVSRKLEMNGPSAFQGLICGKYNGMCLQGPAGVPGRDGSPGANGIPGTPGIPGRDGFKGEKGECLRESFEESWTPNYKQCSWSSLNYGIDLGKIAECTFTKMRSNSALRVLFSGSLRLKCRNACCQRWYFTFNGAECSGPLPIEAIIYLDQGSPEMNSTINIHRTSSVEGLCEGIGAGLVDVAIWVGTCSDYPKGDASTGWNSVSRIIIEELPK
B7: ARF4 (protein)
chain: GLTISSLFSRLFGKKQMRILMVGLDAAGKTTILYKLKLGEIVTTIPTIGFNVETVEYKNICFTVWDVGGQDRIRPLWKHYFQNTQGLIFVVDSNDRERIQEVADELQKMLLVDELRDAVLLLFANKQDLPNAMAISEMTDKLGLQSLRNRTWYVQATCATQGTGLYEGLDWLSNELSKR
B8: PSMB6 (protein)
chain: TTIMAVQFDGGVVLGADSRTTTGSYIANRVTDKLTPIHDRIFCCRSGSAADTQAVADAVTYQLGFHSIELNEPPLVHTAASLFKEMCYRYREDLMAGIIIAGWDPQEGGQVYSVPMGGMMVRQSFAIGGSGSSYIYGYVDATYREGMTKEECLQFTANALALAMERDGSSGGVIRLAAIAESGVERQVLLGDQIPKFAVATLPPA

Target: T1, B3GNT2 (Homo sapiens, UniProt Q9NY97)
T1 construct: The respective ORFs of candidate genes [CD274 (NM_014143), MCL1 (NM_021960), JUNB (NM_002229), and B3GNT2 (NM_006577)] were synthesized; expressed in transfected cells; host or cells: A375 melanoma cells (lentiviral ORF overexpression)
T1 sequence (Q9NY97 1-397): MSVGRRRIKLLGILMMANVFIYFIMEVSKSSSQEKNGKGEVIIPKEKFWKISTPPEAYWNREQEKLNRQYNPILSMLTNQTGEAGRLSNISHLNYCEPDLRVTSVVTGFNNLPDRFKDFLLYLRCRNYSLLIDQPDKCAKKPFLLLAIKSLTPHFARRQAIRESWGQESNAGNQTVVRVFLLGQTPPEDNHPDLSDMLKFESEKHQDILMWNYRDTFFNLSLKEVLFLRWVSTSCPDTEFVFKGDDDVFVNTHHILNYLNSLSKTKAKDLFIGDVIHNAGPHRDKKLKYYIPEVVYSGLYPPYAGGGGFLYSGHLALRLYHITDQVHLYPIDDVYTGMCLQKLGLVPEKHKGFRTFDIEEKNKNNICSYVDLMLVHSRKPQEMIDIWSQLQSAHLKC
Assay: Co-IP of FLAG-tagged B3GNT2 followed by mass spectrometry
Type: cell-based
Design: C-term IgG / C-term flag: unit not given here
Conditions: Co-IP with FLAG antibody, C-terminally FLAG-tagged B3GNT2; mass spectrometry count, unit not given
Outline: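 Co-purifying proteins were identified by fractionated nano-LC–MS/MS on an Orbitrap Elite, run data-dependent. Beforehand, lysates in 1% Triton X-100/HEPES buffer were incubated overnight at 4° C with anti-FLAG or […] and pulled down on Protein A/G magnetic beads for 4 h. Duplicate biological replicates.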

Molecule | C-term flag
B1 | 2
B2 | 2
B3 | 2
B4 | 6
B5 | 8
B6 | 2
B7 | 4
B8 | 3

Same assay, conditions: Co-IP with FLAG antibody, N-terminally FLAG-tagged B3GNT2; mass spectrometry count, unit not given

Molecule | N-term FLAG
B1 | 0
B2 | 0
B3 | 0
B4 | 2
B5 | 0
B6 | 0
B7 | 4
B8 | 5

Same assay, conditions: Co-IP with IgG control antibody, C-terminally FLAG-tagged B3GNT2; mass spectrometry count, unit not given

Molecule | C-term IgG
B1 | 0
B2 | 0
B3 | 0
B4 | 0
B5 | 0
B6 | 0
B7 | 0
B8 | 0

Same assay, conditions: Co-IP with IgG control antibody, N-terminally FLAG-tagged B3GNT2; mass spectrometry count, unit not given

Molecule | N-term IgG
B1 | 0
B2 | 0
B3 | 0
B4 | 0
B5 | 0
B6 | 0
B7 | 0
B8 | 0
